# Reference: US20260274985A1 (MYTHIC THERAPEUTICS, published 2026)
# Where a chain is given by its changes, count along the chain named.
# T1: Human TROP2 Protein, His Tag (human, UniProt P09758 27-274)
# T1 construct: Bought protein; also called TACSTD2; not shown: His tag
# T1 sequence (looked up): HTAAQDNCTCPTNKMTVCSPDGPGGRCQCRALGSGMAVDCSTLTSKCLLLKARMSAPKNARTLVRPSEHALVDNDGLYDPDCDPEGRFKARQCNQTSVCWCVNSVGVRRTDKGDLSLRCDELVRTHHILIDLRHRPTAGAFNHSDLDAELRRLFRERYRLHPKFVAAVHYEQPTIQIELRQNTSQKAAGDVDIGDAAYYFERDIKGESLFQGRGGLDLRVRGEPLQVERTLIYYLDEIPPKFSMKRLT
# T2: Human TROP2 Protein, His Tag (Acro Biosystems) (human, UniProt P09758 27-274)
# T2 construct: Soluble analyte of the Octet assay; also called TACSTD2; not shown: His tag
# T2 sequence (looked up): T1 sequence (looked up)
# T3: Human TROP2 Protein, His Tag (Acro Biosystems) (human, UniProt P09758 27-274)
# T3 construct: not shown: His tag
# T3 sequence (looked up): T1 sequence (looked up)
# B1: MYT11667 (antibody, V domains shown)
# VH: QVQLVQSGAEVKKPGASVKVSCKASGYTFTTAGMQWVRQAPGQGLEWMGWINTHSGVPKYAEDFKGRVTISADTSTSTAYLQLSSLKSEDTAVYYCARSGHGSSYWYFDVWGQGTLVTVSS
# VL: DIQMTQSPSSLSASVGDRVTITCKASQDVSTAVAWYQQKPGKAPKLLIYSASYRYTGVPSRFSGSGSGTDFTLTISSLQPEDFAVYYCQQHYITPLTFGQGTKLEIK
# notes: IgG from supernatant; His at HCV position 101; also called datopotamab variant H3 05
# B2: MYT11673 (antibody, V domains shown)
# VH: B1 VH with H101F, Y107H
# VL: B1 VL
# notes: IgG from supernatant; also called datopotamab variant H3 11
# B3: MYT11674 (antibody, V domains shown)
# VH: B1 VH with H101F, F108H
# VL: B1 VL
# notes: IgG from supernatant; also called datopotamab variant H3 12
# B4: MYT11675 (antibody, V domains shown)
# VH: B1 VH with H101F, D109H
# VL: B1 VL
# B5: MYT13176 (antibody, V domains shown)
# VH: QVQLQQSGSELKKPGASVKVSCKASGYTFTNHGMNWVKQAPGQGLKWMGWINTYTGEPTYTDDFKGRFAFSLDTSVSTAYLQISSLKADDTAVYFCARGGFGSSYWYFDVWGQGSLVTVSS
# VL: B1 VL with M4L, T20S, T31I, A51H, S60D, Q100A, L104V
# notes: Sacituzumab HC-LC pairing variant; IgG
# B6: MYT13161 (antibody, V domains shown)
# VH: B5 VH with H32Y, G33H
# VL: B1 VL with M4L, T20S, S30H, T31I, S60D, Q100A, L104V
# notes: as for B5
# B7: MYT13162 (antibody, V domains shown)
# VH: B5 VH with H32Y, Y60H
# VL: B1 VL with M4L, T20S, S30H, T31I, S60D, Q100A, L104V
# notes: as for B5
# B8: MYT13163 (antibody, V domains shown)
# VH: B5 VH with H32Y, D62H
# VL: B1 VL with M4L, T20S, S30H, T31I, S60D, Q100A, L104V
# notes: as for B5
# B9: MYT13164 (antibody, V domains shown)
# VH: B5 VH with H32Y, D63H
# VL: B1 VL with M4L, T20S, S30H, T31I, S60D, Q100A, L104V
# notes: as for B5
# B10: MYT13165 (antibody, V domains shown)
# VH: B5 VH with H32Y, F64H
# VL: B1 VL with M4L, T20S, S30H, T31I, S60D, Q100A, L104V
# notes: as for B5
# B11: MYT13166 (antibody, V domains shown)
# VH: B5 VH with H32Y, K65H
# VL: B1 VL with M4L, T20S, S30H, T31I, S60D, Q100A, L104V
# notes: as for B5
# B12: MYT13167 (antibody, V domains shown)
# VH: B5 VH with H32Y, G66H
# VL: B1 VL with M4L, T20S, S30H, T31I, S60D, Q100A, L104V
# notes: as for B5
# B13: MYT13168 (antibody, V domains shown)
# VH: B5 VH
# VL: B1 VL with M4L, T20S, T31I, V33H, S60D, Q100A, L104V
# notes: as for B5
# B14: MYT13169 (antibody, V domains shown)
# VH: B5 VH with H32Y, G33H
# VL: B1 VL with M4L, T20S, T31I, V33H, S60D, Q100A, L104V
# notes: as for B5
# B15: MYT13170 (antibody, V domains shown)
# VH: B5 VH with H32Y, Y60H
# VL: B1 VL with M4L, T20S, T31I, V33H, S60D, Q100A, L104V
# notes: as for B5
# B16: MYT13171 (antibody, V domains shown)
# VH: B5 VH with H32Y, D62H
# VL: B1 VL with M4L, T20S, T31I, V33H, S60D, Q100A, L104V
# notes: as for B5
# B17: MYT13172 (antibody, V domains shown)
# VH: B5 VH with H32Y, D63H
# VL: B1 VL with M4L, T20S, T31I, V33H, S60D, Q100A, L104V
# notes: as for B5
# B18: MYT13173 (antibody, V domains shown)
# VH: B5 VH with H32Y, F64H
# VL: B1 VL with M4L, T20S, T31I, V33H, S60D, Q100A, L104V
# notes: as for B5
# B19: MYT13174 (antibody, V domains shown)
# VH: B5 VH with H32Y, K65H
# VL: B1 VL with M4L, T20S, T31I, V33H, S60D, Q100A, L104V
# notes: as for B5
# B20: MYT13175 (antibody, V domains shown)
# VH: B5 VH with H32Y, G66H
# VL: B1 VL with M4L, T20S, T31I, V33H, S60D, Q100A, L104V
# notes: as for B5
# B21: MYT13177 (antibody, V domains shown)
# VH: B5 VH with H32Y, G33H
# VL: B1 VL with M4L, T20S, T31I, A51H, S60D, Q100A, L104V
# notes: as for B5
# B22: MYT13178 (antibody, V domains shown)
# VH: B5 VH with H32Y, Y60H
# VL: B1 VL with M4L, T20S, T31I, A51H, S60D, Q100A, L104V
# notes: as for B5
# B23: MYT13179 (antibody, V domains shown)
# VH: B5 VH with H32Y, D62H
# VL: B1 VL with M4L, T20S, T31I, A51H, S60D, Q100A, L104V
# notes: as for B5
# B24: MYT13180 (antibody, V domains shown)
# VH: B5 VH with H32Y, D63H
# VL: B1 VL with M4L, T20S, T31I, A51H, S60D, Q100A, L104V
# notes: as for B5
# B25: MYT13181 (antibody, V domains shown)
# VH: B5 VH with H32Y, F64H
# VL: B1 VL with M4L, T20S, T31I, A51H, S60D, Q100A, L104V
# notes: as for B5
# B26: MYT13182 (antibody, V domains shown)
# VH: B5 VH with H32Y, K65H
# VL: B1 VL with M4L, T20S, T31I, A51H, S60D, Q100A, L104V
# notes: as for B5
# B27: MYT13183 (antibody, V domains shown)
# VH: B5 VH with H32Y, G66H
# VL: B1 VL with M4L, T20S, T31I, A51H, S60D, Q100A, L104V
# notes: as for B5
# B28: MYT13184 (antibody, V domains shown)
# VH: B5 VH
# VL: B1 VL with M4L, T20S, T31I, S52H, S60D, Q100A, L104V
# notes: as for B5
# B29: MYT13185 (antibody, V domains shown)
# VH: B5 VH with H32Y, G33H
# VL: B1 VL with M4L, T20S, T31I, S52H, S60D, Q100A, L104V
# notes: as for B5
# B30: MYT13186 (antibody, V domains shown)
# VH: B5 VH with H32Y, Y60H
# VL: B1 VL with M4L, T20S, T31I, S52H, S60D, Q100A, L104V
# notes: as for B5
# B31: MYT13188 (antibody, V domains shown)
# VH: B5 VH with H32Y, D63H
# VL: B1 VL with M4L, T20S, T31I, S52H, S60D, Q100A, L104V
# notes: as for B5
# B32: MYT13189 (antibody, V domains shown)
# VH: B5 VH with H32Y, F64H
# VL: B1 VL with M4L, T20S, T31I, S52H, S60D, Q100A, L104V
# notes: as for B5
# B33: MYT13200 (antibody, V domains shown)
# VH: B5 VH
# VL: B1 VL with M4L, T20S, T31I, S60D, Q89H, Q100A, L104V
# notes: as for B5
# B34: MYT12299 (antibody, V domains shown)
# VH: B5 VH with K65H
# VL: B1 VL with M4L, T20S, T31I, S60D, Q100A, L104V
# notes: sacituzumab VH 32, 65 -> H
# B35: MYT12300 (antibody, V domains shown)
# VH: B5 VH with G66H
# VL: B1 VL with M4L, T20S, T31I, S60D, Q100A, L104V
# notes: sacituzumab VH 32, 66 -> H
# B36: MYT12301 (antibody, V domains shown)
# VH: B5 VH with H32Y, G33H, Y60H
# VL: B1 VL with M4L, T20S, T31I, S60D, Q100A, L104V
# notes: sacituzumab VH 33, 60 -> H
# B37: MYT12303 (antibody, V domains shown)
# VH: B5 VH with H32Y, G33H, D63H
# VL: B1 VL with M4L, T20S, T31I, S60D, Q100A, L104V
# notes: sacituzumab VH 33, 63 -> H
# B38: MYT12304 (antibody, V domains shown)
# VH: B5 VH with H32Y, G33H, F64H
# VL: B1 VL with M4L, T20S, T31I, S60D, Q100A, L104V
# notes: sacituzumab VH 33, 64 -> H
# B39: MYT12305 (antibody, V domains shown)
# VH: B5 VH with H32Y, G33H, K65H
# VL: B1 VL with M4L, T20S, T31I, S60D, Q100A, L104V
# notes: sacituzumab VH 33, 65 -> H
# B40: MYT12307 (antibody, V domains shown)
# VH: B5 VH with H32Y, Y60H, D62H
# VL: B1 VL with M4L, T20S, T31I, S60D, Q100A, L104V
# notes: sacituzumab VH 60, 62 -> H
# B41: MYT12308 (antibody, V domains shown)
# VH: B5 VH with H32Y, Y60H, D63H
# VL: B1 VL with M4L, T20S, T31I, S60D, Q100A, L104V
# notes: sacituzumab VH 60, 63 -> H
# B42: MYT12309 (antibody, V domains shown)
# VH: B5 VH with H32Y, Y60H, F64H
# VL: B1 VL with M4L, T20S, T31I, S60D, Q100A, L104V
# notes: sacituzumab VH 60, 64 -> H
# Molecular target: T1, Human TROP2 Protein, His Tag
# Assay: BLI (Octet)
row,Binder,binding result
1,B1,binds
2,B2,binds
3,B3,binds
4,B4,binds

# Molecular target: T2, Human TROP2 Protein, His Tag (Acro …)
# Assay: BLI (Octet)
row,Binder,binding result
1,B5,binds
2,B6,binds
3,B7,binds
4,B8,binds
5,B9,binds
6,B10,binds
7,B11,binds
8,B12,binds
9,B13,binds
10,B14,binds
11,B15,binds
12,B16,binds
13,B17,binds
14,B18,binds
15,B19,binds
16,B20,binds
17,B21,binds
18,B22,binds
19,B23,binds
20,B24,binds
21,B25,binds
22,B26,binds
23,B27,binds
24,B28,binds
25,B29,binds
26,B30,binds
27,B31,binds
28,B32,binds
29,B33,binds

# Molecular target: T3, Human TROP2 Protein, His Tag (Acro …)
# Assay: BLI (Octet) [1/2]
row,Binder,binding result
1,B34,binds
2,B35,binds
3,B36,binds
4,B37,binds
5,B38,binds
6,B39,binds
7,B40,binds
8,B41,binds
9,B42,binds
